# Measurements: patent publication US20240011031, “COMPOSITIONS COMPRISING A NUCLEASE AND USES THEREOF” (Arbor Biotechnologies, Inc., published 2024)
# T1: Effector SEQ ID NO: 2 (CLUST.200916 nuclease)
# T1 chain: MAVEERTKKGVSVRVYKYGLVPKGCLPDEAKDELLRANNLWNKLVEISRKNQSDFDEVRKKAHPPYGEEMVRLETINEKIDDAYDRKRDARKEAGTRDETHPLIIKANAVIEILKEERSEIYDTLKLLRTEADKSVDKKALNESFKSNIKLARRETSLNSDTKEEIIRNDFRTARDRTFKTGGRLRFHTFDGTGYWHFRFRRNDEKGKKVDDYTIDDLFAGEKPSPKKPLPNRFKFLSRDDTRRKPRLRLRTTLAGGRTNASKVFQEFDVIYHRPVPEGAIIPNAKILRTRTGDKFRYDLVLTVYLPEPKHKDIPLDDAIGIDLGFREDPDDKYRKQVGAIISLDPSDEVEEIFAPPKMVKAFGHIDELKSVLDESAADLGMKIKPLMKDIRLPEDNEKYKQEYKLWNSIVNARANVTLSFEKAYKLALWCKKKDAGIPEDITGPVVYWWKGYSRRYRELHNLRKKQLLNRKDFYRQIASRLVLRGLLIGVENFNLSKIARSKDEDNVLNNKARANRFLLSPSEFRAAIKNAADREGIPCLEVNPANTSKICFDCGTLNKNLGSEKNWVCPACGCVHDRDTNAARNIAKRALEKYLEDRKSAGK
# B1: pre-crRNA GFP Target 2 ; GFP Target 2 (ssRNA ; dsDNA)
# RNA: GGUAUAACGACCCUGCGAAGUGGGGUGUAACUUCGACAAAAACUGGUUACCAAAUGCAGCCAAAUGAGUAUAACGACCCUGCGAAGUGGGGUGUAACUUCGACCUAACCCCUCUCUAAACGGAGGGGUUU
# DNA 1: AAAAACTGGTTACCAAATGCAGCCAAATGA
# DNA 2: TCATTTGGCTGCATTTGGTAACCAGTTTTT
# B2: pre-crRNA GFP Target 5 ; GFP Target 5 (ssRNA ; dsDNA)
# RNA: GGUAUAACGACCCUGCGAAGUGGGGUGUAACUUCGACUGACGGCAUUGACGGAAGGUGCAAAACUGUGUAUAACGACCCUGCGAAGUGGGGUGUAACUUCGACCUAACCCCUCUCUAAACGGAGGGGUUU
# DNA 1: TGACGGCATTGACGGAAGGTGCAAAACTGT
# DNA 2: ACAGTTTTGCACCTTCCGTCAATGCCGTCA
# B3: pre-crRNA GFP Target 1 ; GFP Target 1 (ssRNA ; dsDNA)
# RNA: GGUAUAACGACCCUGCGAAGUGGGGUGUAACUUCGACAGAGCGUACCAUCAGCUUCGAAGGCGACGGGUAUAACGACCCUGCGAAGUGGGGUGUAACUUCGACCUAACCCCUCUCUAAACGGAGGGGUUU
# DNA 1: AGAGCGTACCATCAGCTTCGAAGGCGACGG
# DNA 2: CCGTCGCCTTCGAAGCTGATGGTACGCTCT
# B4: pre-crRNA GFP Target 3 ; GFP Target 3 (ssRNA ; dsDNA)
# RNA: GGUAUAACGACCCUGCGAAGUGGGGUGUAACUUCGACUAGUGCAGAUGUAUUUCGCUUUAAUGGUACGUAUAACGACCCUGCGAAGUGGGGUGUAACUUCGACCUAACCCCUCUCUAAACGGAGGGGUUU
# DNA 1: TAGTGCAGATGTATTTCGCTTTAATGGTAC
# DNA 2: GTACCATTAAAGCGAAATACATCTGCACTA
# B5: pre-crRNA GFP Target 4 ; GFP Target 4 (ssRNA ; dsDNA)
# RNA: GGUAUAACGACCCUGCGAAGUGGGGUGUAACUUCGACUGAUGUGGCUCGGGUACUUGGCGAAACACUGUAUAACGACCCUGCGAAGUGGGGUGUAACUUCGACCUAACCCCUCUCUAAACGGAGGGGUUU
# DNA 1: TGATGTGGCTCGGGTACTTGGCGAAACACT
# DNA 2: AGTGTTTCGCCAAGTACCCGAGCCACATCA
# Legend:
# [1] = biological target: T1, Effector SEQ ID NO: 2 (CLUST.200916 …); experiment: GFP fluorescence depletion in IVTT, 37 C, 12 h; PAM 5'-ACCG-3'
# Description: (§1) In this assay, an active CRISPR system designed to target GFP binds and cleaves the double-stranded DNA region encoding GFP, resulting in depletion of GFP fluorescence. The FDA assay involves in vitro transcription and translation, allowing production of an RNP from a DNA template encoding a CLUST.200916 effector and a DNA template containing a pre-crRNA sequence under a T7 promoter with direct repeat (DR)-spacer-direct repeat (DR); the spacer targeted GFP. In the same one-pot reaction, GFP and RFP were also produced as both the target and the fluorescence reporter (FIG. SA). The target GFP plasmid sequence is set forth in SEQ ID NO: 205, and the fluorescence reporter RFP plasmid sequence is set forth in SEQ ID NO: 206. GFP and RFP fluorescence values were measured every 20 min at 37° C. for 12 hr, using a TECAN Infinite F Plex plate reader. Since RFP was not targeted, its fluorescence was not affected and was therefore used as an internal signal control.
# (§2) GFP signal was normalized to RFP signal, then the average fluorescence of three technical replicates was taken at each time point. GFP fluorescence depletion was then calculated by dividing the GFP signal of an effector incubated with a non-GFP targeting RNA guide (which instead targets a kanamycin resistance gene) by the GFP signal of an effector incubated with a GFP targeting RNA guide. […]
# [2] = biological target: T1, Effector SEQ ID NO: 2 (CLUST.200916 …); experiment: GFP fluorescence depletion in IVTT, 37 C, 12 h; PAM 5'-TCCA-3'
# Description: as §1, §2
# [3] = biological target: T1, Effector SEQ ID NO: 2 (CLUST.200916 …); experiment: GFP fluorescence depletion in IVTT, 37 C, 12 h; PAM 5'-CCCA-3'
# Description: as §1, §2
# [4] = biological target: T1, Effector SEQ ID NO: 2 (CLUST.200916 …); experiment: GFP fluorescence depletion in IVTT, 37 C, 12 h; PAM 5'-CCCG-3'
# Description: as §1, §2
# [5] = biological target: T1, Effector SEQ ID NO: 2 (CLUST.200916 …); experiment: GFP fluorescence depletion in IVTT, 37 C, 12 h; PAM 5'-TCCT-3'
# Description: as §1, §2
binder,measurement,setting,value
B1,activity,[1],> 1 depletion ratio
B2,activity,[2],> 1 depletion ratio
B3,activity,[3],> 1 depletion ratio
B4,activity,[4],> 1 depletion ratio
B5,activity,[5],> 1 depletion ratio
